Measurements as given in patent US20110263824A1.
Changes are numbered by the printed parent chain. In names and notes the source's numbering stands. Blank lines part the entries; values can stand above or below the binder they belong to.

Legend:
human serum protein [1] = experiment: summary of Example 1-9: adsorption to human serum protein-immobilized magnetic beads
human serum protein [2] = experiment: adsorption to human serum protein-immobilized magnetic beads, western blot quantification
human serum protein [3] = experiment: adsorption of TM2 variant to human serum protein-immobilized magnetic beads, western blot quantification
human serum protein [4] = experiment: human serum (1:800) adsorbed to TM2-immobilized magnetic beads, HRP-labeled anti-human IgG detection
human serum protein [5] = experiment: adsorption of TM2 to human serum protein-immobilized magnetic beads, western blot quantification (reference)
human serum protein [6] = experiment: human serum (1:800) adsorbed to TM2 variant-immobilized magnetic beads, HRP-labeled anti-human IgG detection

B1: TM2 K26A (protein)
chain: MSDVQSSLTGTWYNELNSKMELTANADGTLTGKYLSKVGDVYVPYPLSGRYNLQPPAGQGVALGWAVSWENSKIHSATTWSGQFFSESSPVILTQWLLSSSTARGDVWESTLVGNDSFTKTAPTEQQIAHAQLHCRAPRLK
non-specific binding and adsorption relative to wild type TM2 (% of wild type TM2) (human serum protein [1]): 60
decrease of adsorption to human serum protein compared to the wild type TM2 (human serum protein [2]): 30%
Non-specific binding of serum protein (%) (% of wild type TM2) (human serum protein [3]): 68

B2: TM2 R104EK141E (protein)
chain: B1 chain with A26K, R104E, K141E
non-specific binding and adsorption relative to wild type TM2 (% of wild type TM2) (human serum protein [1]): 20
decrease of adsorption to human serum protein compared to the wild type TM2 (human serum protein [2]): 70%
Non-specific binding of serum protein (%) (% of wild type TM2) (human serum protein [3]): 25

B5: tamavidin 2 (wild type) (protein)
chain: B1 chain with A26K
Non-specific binding to serum protein (A450) (human serum protein [4]): 0.67 A450
Non-specific binding of serum protein (%) (% of wild type TM2) (human serum protein [5]): 100

Other lines, results leading:

non-specific binding and adsorption relative to wild type TM2 (% of wild type TM2) (human serum protein [1]): 60
decrease of adsorption to human serum protein compared to the wild type TM2 (human serum protein [2]): 40%
Non-specific binding of serum protein (%) (% of wild type TM2) (human serum protein [3]): 55
B3: TM2 K73Q (protein)
chain: B1 chain with A26K, K73Q

decrease of adsorption to human serum protein compared to the wild type TM2 (human serum protein [2]): 10%
Non-specific binding of serum protein (%) (% of wild type TM2) (human serum protein [3]): 90
B4: TM2 R104E (protein)
chain: B1 chain with A26K, R104E

non-specific binding and adsorption relative to wild type TM2 (% of wild type TM2) (human serum protein [1]): 60
decrease of adsorption to human serum protein compared to the wild type TM2 (human serum protein [2]): 40%
Non-specific binding of serum protein (%) (% of wild type TM2) (human serum protein [3]): 58
B6: TM2 K141E (protein)
chain: B1 chain with A26K, K141E

Non-specific binding to serum protein (A450) (human serum protein [6]): 0.45 A450
B7: TM2 D40NR104EK141E (protein)
chain: B1 chain with A26K, D40N, R104E, K141E
